Test results reported in paper PMC12009342.
pKd: −log10 of the molar value.

How the values were obtained:
[1] = target: HIV-1 Env antigen (BG505 SOSIP.664 gp140-his) (HIV-1 (BG505)) (UniProt Q2N0S6); assay: SEC-MALS; Fab/antigen mixtures; Fab and HIV Env trimer mixed 3:1, Fab and EGFR or Nkp30 mixed 1:1; Superdex 200 Increase 10/300 GL, PBS with 200 ppm sodium azide, 1 mL/min
[2] = target: HIV-1 Env antigen (BG505 SOSIP.664 gp140-his) (HIV-1 (BG505)) (UniProt Q2N0S6); assay: BLI; BLItz; His-tagged antigen captured on Anti-Penta-HIS (HIS1K) biosensor at 25 ng/µL for 300 s; Fab in solution at 4 concentrations; association 180 s, dissociation 300 s in PBS

NC-Cow1 Fab ulCDR-swap variant var1 (ulCDR of NC-Cow2)
stoichiometry N [1]: 1
pKd [2]: 6.90
